Test results published in publication PMC5789026, “mRNA Processing Factor CstF-50 and Ubiquitin Escort Factor p97 Are BRCA1/BARD1 Cofactors Involved in Chromatin Remodeling during the DNA Damage Response” (Molecular and Cellular Biology, 2017).

Legend:
[1] = target: T1, ΔBRCA1/BARD1-wt heterodimeric complex (truncated BRCA1 residues 1 to 304 and full-length BARD1) (UniProt P38398 1-304; Q99728 1-777); test: pull-down; ΔBRCA1/BARD1 (wt or Q564H) incubated with GST-CstF-50 and/or His-p97, immunoprecipitated with anti-BARD1 or preimmune sera; washes with buffer A (PBS, 0.01% Nonidet P-40, 0.04% BSA) including 300 mM NaCl; Western blot; settings: both partners purified
T1 construct: truncated BRCA1 spanning the RING domain, residues 1 to 304; full-length BARD1, wild type; also called BRCA1/BARD1 heterodimer

[2] = target: T2, His-Ub (UniProt P0CG48 1-76); test: pull-down; interaction assay with His-Ub and GST-CstF-50 as described previously (ref. 5); pellets and supernatants analysed by immunoblotting under denaturing PAGE; settings: both partners purified
T2 construct: ubiquitin (Ub), the cut product of its precursor; also called ubiquitin; source: E. coli BL21, purified (Ni-agarose)

T1 sequence (P38398 1-304, stated change not applied, chain 1 of 2): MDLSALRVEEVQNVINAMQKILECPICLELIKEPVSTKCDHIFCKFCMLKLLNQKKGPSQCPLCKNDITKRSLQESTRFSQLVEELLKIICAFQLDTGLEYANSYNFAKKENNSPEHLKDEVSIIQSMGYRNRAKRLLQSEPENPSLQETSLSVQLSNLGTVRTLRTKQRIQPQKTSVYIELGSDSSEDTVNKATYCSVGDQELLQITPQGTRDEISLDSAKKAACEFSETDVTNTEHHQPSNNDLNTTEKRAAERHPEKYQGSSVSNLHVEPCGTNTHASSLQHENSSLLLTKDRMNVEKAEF
T1 sequence (Q99728 whole entry, stated change not applied, chain 2 of 2, the tested form may be a part): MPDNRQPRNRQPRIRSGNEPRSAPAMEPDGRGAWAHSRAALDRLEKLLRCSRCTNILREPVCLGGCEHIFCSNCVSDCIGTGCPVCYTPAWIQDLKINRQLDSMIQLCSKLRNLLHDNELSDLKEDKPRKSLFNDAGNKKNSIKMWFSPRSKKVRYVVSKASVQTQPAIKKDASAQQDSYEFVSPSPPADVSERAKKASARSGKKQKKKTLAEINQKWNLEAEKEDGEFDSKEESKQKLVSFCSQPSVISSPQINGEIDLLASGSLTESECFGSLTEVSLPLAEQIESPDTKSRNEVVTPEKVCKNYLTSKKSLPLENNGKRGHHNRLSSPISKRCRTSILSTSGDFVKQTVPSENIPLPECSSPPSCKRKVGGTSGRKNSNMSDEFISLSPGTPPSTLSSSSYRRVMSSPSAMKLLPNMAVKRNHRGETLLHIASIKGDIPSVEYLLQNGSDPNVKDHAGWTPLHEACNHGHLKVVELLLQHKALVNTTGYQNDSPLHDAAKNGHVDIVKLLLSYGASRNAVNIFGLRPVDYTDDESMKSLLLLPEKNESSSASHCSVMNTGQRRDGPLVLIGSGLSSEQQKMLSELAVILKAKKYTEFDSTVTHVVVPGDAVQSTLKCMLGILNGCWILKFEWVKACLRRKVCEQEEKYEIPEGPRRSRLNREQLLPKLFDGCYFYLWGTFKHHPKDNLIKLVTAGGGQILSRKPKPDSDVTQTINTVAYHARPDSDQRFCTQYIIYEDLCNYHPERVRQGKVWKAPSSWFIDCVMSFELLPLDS

binding result [1]: binds
binding result [2]: binds
B1: GST-CstF-50 (natural protein, UniProt Q05048 1-431, looked up)
chain: MYRTKVGLKDRQQLYKLIISQLLYDGYISIANGLINEIKPQSVCAPSEQLLHLIKLGMENDDTAVQYAIGRSDTVAPGTGIDLEFDADVQTMSPEASEYETCYVTSHKGPCRVATYSRDGQLIATGSADASIKILDTERMLAKSAMPIEVMMNETAQQNMENHPVIRTLYDHVDEVTCLAFHPTEQILASGSRDYTLKLFDYSKPSAKRAFKYIQEAEMLRSISFHPSGDFILVGTQHPTLRLYDINTFQCFVSCNPQDQHTDAICSVNYNSSANMYVTGSKDGCIKLWDGVSNRCITTFEKAHDGAEVCSAIFSKNSKYILSSGKDSVAKLWEISTGRTLVRYTGAGLSGRQVHRTQAVFNHTEDYVLLPDERTISLCCWDSRTAERRNLLSLGHNNIVRCIVHSPTNPGFMTCSDDFRARFWYRRSTTD
notes: CstF-50 (cleavage stimulation factor 50), recombinant; also called glutathione S-transferase (GST)-CstF-50; source: E. coli BL21, purified (glutathione-agarose)
